Reference: patent US12478674 (dated 2025)
Numbering of substitutions follows the chain as printed. Values joined by “and” are separate entries in the source; they are usually repeats but may differ in a detail not shown here. Equal values may be shown once. One block for each binder: values may come before it.

What was measured:
human CTLA-4 [1] = biological target: human CTLA-4 (human); test: FACS, pH 7.3
human CTLA-4 [2] = biological target: human CTLA-4 (human); test: FACS, pH 6.0
human CTLA-4 [3] = biological target: human CTLA-4 (human); test: SPR, pH 6.0, 37C
human CTLA-4 [4] = biological target: human CTLA-4 (human); test: SPR, pH 6.0, 37C; remark: listed apart in the source
human CTLA-4 [5] = biological target: human CTLA-4 (human); test: SPR, pH 6.0, 37C; remark: listed apart in the source
human CTLA-4 [6] = biological target: human CTLA-4 (human); test: SPR, pH 7.4, 37C
human CTLA-4 [7] = biological target: human CTLA-4 (human); test: SPR, pH 7.4, 37C; remark: listed apart in the source
human CTLA-4 [8] = biological target: human CTLA-4 (human); test: SPR, pH 7.4, 37C; remark: listed apart in the source
human CTLA-4 [9] = biological target: human CTLA-4 (human); test: FACS, pH 6.2, bivalent
human CTLA-4 [10] = biological target: human CTLA-4 (human); test: FACS, pH 6.7, bivalent
human CTLA-4 [11] = biological target: human CTLA-4 (human); test: FACS, pH 7.2, bivalent

Sequence of human CTLA-4 (human) (chain, as listed by the source): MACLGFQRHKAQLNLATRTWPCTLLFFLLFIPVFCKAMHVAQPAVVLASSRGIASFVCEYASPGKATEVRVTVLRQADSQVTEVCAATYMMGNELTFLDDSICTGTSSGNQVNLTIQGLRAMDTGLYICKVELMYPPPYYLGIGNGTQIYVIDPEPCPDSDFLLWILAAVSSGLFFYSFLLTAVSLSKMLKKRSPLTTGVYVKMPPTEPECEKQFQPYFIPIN

B2: ipi.105 IgG1 (antibody, V domains shown)
VH: QVQLVESGGGVVQPGRSLRLSCAASGFTFSHYTMHWVRQAPGKGLEWVTFISYDGHNKYYADSVKGRFTISRDNSKNTLYLQMNSLRAEDTAIYYCARTGWLGPFDYWGQGTLVTVSS
VL: EIVLTQSPGTLSLSPGERATLSCRASQEVGESELAWYQQKPGQAPRLLIYGAFSRATGIPDRFSGSGSGTDFTLTISRLEPEDFAVYYCQQYGSSPWTFGQGTKVEIKR
- EC50 (human CTLA-4 [9]): 2.6 nM
- EC50 (human CTLA-4 [10]): 3.45 nM
- EC50 (human CTLA-4 [11]): 3.94 nM

B3: ipi.100 IgG1 (antibody, V domains shown)
VH: B2 VH with H56N
VL: not shown
- EC50 (human CTLA-4 [9]): 2.94 nM
- EC50 (human CTLA-4 [10]): 2.85 nM
- EC50 (human CTLA-4 [11]): 2.8 nM

B5: ipi.101 IgG1 (antibody, V domains shown)
VH: B2 VH
VL: not shown
- EC50 (human CTLA-4 [9]): 3.52 nM
- EC50 (human CTLA-4 [10]): 4.06 nM
- EC50 (human CTLA-4 [11]): 3.81 nM

B7: ipi.64 Fab (antibody, V domains shown)
VH: B2 VH with H56N
VL: not shown
- EC50 (human CTLA-4 [1]): 140 nM
- EC50 (human CTLA-4 [2]): 3.3 nM

B8: ipi.64 IgG1 (antibody, V domains shown)
VH: B2 VH with H56N
VL: not shown
- EC50 (human CTLA-4 [9]): 2.93 nM
- EC50 (human CTLA-4 [10]): 2.97 nM
- EC50 (human CTLA-4 [11]): 3.1 nM

Next, values leading:

- EC50 (human CTLA-4 [1]): 5.4 nM
- EC50 (human CTLA-4 [2]): 7.1 nM
- Kd (human CTLA-4 [3]): 21 nM
- Kd (human CTLA-4 [4]): 21 nM
- Kd (human CTLA-4 [5]): 46 nM
- Kd (human CTLA-4 [6]): 47 nM
- Kd (human CTLA-4 [7]): 22 nM
- Kd (human CTLA-4 [8]): 22 nM and 14 nM
B1: ipilimumab (ipi) Fab (antibody, V domains shown)
VH: B2 VH with H31S, H56N
VL: not shown

- EC50 (human CTLA-4 [9]): 2.76 nM
- EC50 (human CTLA-4 [10]): 2.35 nM
- EC50 (human CTLA-4 [11]): 1.84 nM
B4: ipilimumab IgG1 (antibody, V domains shown)
VH: B2 VH with H31S, H56N
VL: not shown

- EC50 (human CTLA-4 [9]): 3.15 nM
- EC50 (human CTLA-4 [10]): 4.37 nM
- EC50 (human CTLA-4 [11]): 11.5 nM
B6: ipi.106 IgG1 (antibody, V domains shown)
VH: B2 VH with T99H
VL: B2 VL
